Where two headings read alike, the source gives them in different places. Where a SMILES comes first, the peptide text is derived from it. The star is where a group is joined. Bz = O=C(c1ccccc1)*
Tests used:
[1] = target: Keap1-Nrf2 protein-protein interaction (CFP-Nrf2 and YFP-Kelch) (Homo sapiens, UniProt Q14145); test: FRET competition assay; assay type: binding; settings: for binding activity relative to peptide 1: FRET competition, 7-mer peptides; for effect on association between CFP-Nrf2 and YFP-Kelch (FRET efficiency): unlabeled 16-mer peptides, competition assay, Fig. 5
[2] = system: Keap1-Nrf2 protein-protein interaction; settings: read-out: FP IC50 ± SE; previously described FP assay; cited from earlier work
[3] = target: T1, YFP conjugated to the human Keap1 Kelch domain (YFP-Kelch) (human, UniProt Q14145 321-609); test: FRET or BRET
[4] = target: T1, YFP conjugated to the human Keap1 Kelch …; test: FRET or BRET; remark: listed apart in the source
[5] = target: T1, YFP conjugated to the human Keap1 Kelch …; test: FRET or BRET; remark: listed apart in the source

Sequence of Keap1-Nrf2 protein-protein interaction (CFP-Nrf2 and YFP-Kelch) (Q14145 321-609): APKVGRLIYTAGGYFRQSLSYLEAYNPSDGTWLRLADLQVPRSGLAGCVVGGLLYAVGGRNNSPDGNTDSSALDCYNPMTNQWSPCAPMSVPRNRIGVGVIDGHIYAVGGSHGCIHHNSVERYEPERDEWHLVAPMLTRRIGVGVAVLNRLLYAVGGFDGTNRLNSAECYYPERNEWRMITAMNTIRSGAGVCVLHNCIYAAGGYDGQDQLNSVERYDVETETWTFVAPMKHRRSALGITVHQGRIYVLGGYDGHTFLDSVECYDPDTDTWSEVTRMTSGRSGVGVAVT
T1 sequence (Q14145 321-609): as above

Question: For `CC(=O)N[C@@H](CC(=O)O)C(=O)N1CCC[C@H]1C(=O)N[C@@H](CCC(=O)O)C(=O)N[C@H](C(=O)NCC(=O)N[C@@H](CCC(=O)O)C(=O)N[C@@H](Cc1ccccc1)C(=O)O)[C@@H](C)O` [Peptide 3, Ac-DPETGEF-OH] (Ac-DPETGEF-OH), which “binding activity relative to peptide 1” value [1] is on record?
Answer: The value was “increased binding activity”.

Question: What about the IC50 [2] of the same molecule?
Answer: Its IC50 is 250 ± 40 nM.

Question: For “T80K (AFFAQLQLDEEKGEFL) [Peptide T80K, reference compound]”, which “effect on association between CFP-Nrf2 and YFP-Kelch (FRET efficiency)” value (from here on “effect”) [1] is on record?
Answer: Its value is “unable to perturb the association”.

Question: For `CC(C)C[C@H](NC(=O)[C@H](CCC(=O)O)NC(=O)CNC(=O)[C@@H](NC(=O)[C@H](CCC(=O)O)NC(=O)[C@@H]1CCCN1C(=O)[C@H](CC(=O)O)NC(=O)c1ccccc1)[C@@H](C)O)C(=O)O` [Peptide 4, Ph-DPETGEL-OH] (Bz-DPETGEL-OH; N-terminus assumed), which “binding activity relative to peptide 1” value [1] is on record?
Answer: The value was “increased binding activity”.

Question: And the IC50 [2]?
Answer: Its IC50 is 160 ± 20 nM.

Question: For E78P/F83L (AFFAQLQLDPETGELL), which “effect” value [1] is on record?
Answer: Its value is “dose-dependent reduction in FE”.

Question: For “E79Q (AFFAQLQLDEQTGEFL) [Peptide E79Q, reference compound]”, which “effect” value [1] is on record?
Answer: The value was “unable to perturb the association”.

Question: For “E82D (AFFAQLQLDEETGDFL) [Peptide E82D, reference compound]”, which “effect” value [1] is on record?
Answer: The value was “unable to perturb the association”.

B1: E78P/F83L unlabeled 16-mer peptide (peptide)
peptide: AFFAQLQLDPETGELL
Question: For B1, which IC50 [3] is on record?
Answer: The IC50 was 80 nM.

B2: peptide 3, Ac-DPETGEF-OH (peptide)
peptide: Ac-DPETGEF-OH
Question: For B2, which IC50 [4] is on record?
Answer: Its IC50 is 330 nM.

B3: CFP-E79Q (peptide)
chain: AFFAQLQLDEQTGEFL
Question: For B3, which Kd [5] is on record?
Answer: The Kd was over 100 nM.

B4: CFP-T80K (peptide)
chain: AFFAQLQLDEEKGEFL
Question: For B4, which Kd [5] is on record?
Answer: The Kd was over 100 nM.

B5: CFP-E82D (peptide)
chain: AFFAQLQLDEETGDFL
Question: With B5 as the molecule, how does the Kd [5] read?
Answer: The Kd was over 100 nM.

B6: CFP-E78P/F83L (peptide)
chain: AFFAQLQLDPETGELL
Question: Which Kd [5] does the source give for B6 here?
Answer: Its Kd is 40 nM.

From PMC3843635 (Protein Science : A Publication of the Protein Society, 2013)
